Columns and labels:
[1] = biological target: human CD20 (on the human B-cell lymphoma cell line WIL2-S and other CD20+ human B-cell lines) (human) (UniProt P11836); test: cell-based or functional assay
[2] = biological target: monkey CD20 (on monkey peripheral blood cells) (monkey) (UniProt M4ZHZ6); test: flow cytometry on monkey peripheral blood, N = 3, mean (SD 3.3); control column 0.2 (0.1)
UniProt M4ZHZ6, sequence (M4ZHZ6 entry or part of it limits assumed): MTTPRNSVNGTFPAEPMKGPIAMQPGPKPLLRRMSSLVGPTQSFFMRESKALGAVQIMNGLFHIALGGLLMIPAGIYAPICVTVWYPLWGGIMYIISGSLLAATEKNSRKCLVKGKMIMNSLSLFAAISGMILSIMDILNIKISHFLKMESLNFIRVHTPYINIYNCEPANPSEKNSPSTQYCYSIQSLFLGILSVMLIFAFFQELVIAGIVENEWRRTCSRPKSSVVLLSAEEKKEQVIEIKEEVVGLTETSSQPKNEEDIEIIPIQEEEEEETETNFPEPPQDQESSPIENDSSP

UniProt P11836, sequence (P11836 whole entry): as the sequence (M4ZHZ6 entry or part of it limits assumed) above, with P25S, L31F, A51T, V157A, R217K, S226N, V227I, V239T counted along it

apoptosis of Ramos B-cells, annexin V/propidium iodide flow cytometry [1]: 60 % cell lysis | percent positive staining cells [2]: 21.5%
Substance: rituximab (antibody)
